In assay [1] the target is Native hu MSLN (cells) (UniProt Q13421). The assay is described as follows: KinExA. (In general: Kinetic exclusion samples the free partner from a solution-phase mixture.)
The target in assay [2] is Soluble human MSLN (UniProt Q13421). Nature of the assay: Biacore; published value. (In SPR one partner is held on a chip, and binding of the other changes the refractive index at the surface.)
Assay [3] shares this target. Nature of the assay: Biacore.

Sequence of Soluble human MSLN (Q13421 296-606): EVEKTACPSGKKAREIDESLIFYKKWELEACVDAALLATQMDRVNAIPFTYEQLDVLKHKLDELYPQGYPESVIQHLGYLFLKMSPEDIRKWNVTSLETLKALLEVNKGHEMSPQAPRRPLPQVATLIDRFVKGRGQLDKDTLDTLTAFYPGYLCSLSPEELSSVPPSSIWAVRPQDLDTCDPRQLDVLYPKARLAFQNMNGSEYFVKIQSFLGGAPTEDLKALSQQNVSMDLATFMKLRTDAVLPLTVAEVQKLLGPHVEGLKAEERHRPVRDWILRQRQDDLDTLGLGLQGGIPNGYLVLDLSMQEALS
Sequence of Native hu MSLN (cells) (Q13421 296-606): as above

As for Morab-009 (ssI CDRs), the results for the Kd in assay [1], in assay [2] and in assay [3] were 0.0022 nM, 1.5 nM and 0.16 nM, respectively.

By Kd is commonly meant the constant that tells how readily two partners part at equilibrium.

The values above are taken from patent publication US20190055316A1.
